Measurements: doi:10.1101/2025.02.26.640373

Target: SHP2^WT-TurboID (UniProt Q06124)

in vitro phosphatase activity (initial velocity, RFU/s, DiFMUP substrate): +PD-1 pY248 over basal activity: 10 fold
Substance: PD-1 pY248 phosphopeptide
